Laboratory results reported in patent US20240317826.
Where a chain is given by its changes, count along the chain named. Numbers in names are those of the source.

B1: HIV-1NL4-3 integrase (IN), wild type, in virus / GagPol (protein)
chain: FLDGIDKAQEEHEKYHSNWRAMASDFNLPPVVAKEIVASCDKCQLKGEAMHGQVDCSPGIWQLDCTHLEGKVILVAVHVASGYIEAEVIPAETGQETAYFLLKLAGRWPVKTVHTDNGSNFTSTTVKAACWWAGIKQEFGIPYNPQSQGVIESMNKELKKIIGQVRDQAEHLKTAVQMAVFIHNFKRKGGIGGYSAGERIVDIIATDIQTKELQKQITKIQNFRVYYRDSRDPVWKGPAKLLWKGEGAVVIQDNSDIKVVPRRKAKIIRDYGKQMAGDDCVASRQDED
B2: HIV-1NL4-3 integrase W235E, in virus (protein)
chain: B1 chain with W235E
B3: HIV-1NL4-3 integrase R228A, in virus (protein)
chain: B1 chain with R228A

How the values were obtained:
[1] = molecular target: INI1 of 293 T producer cells (endogenous), Q12824

| Protein | INI1 incorporation into HIV-1 virions (Western analysis of concentrated virions) (SP38 stapled peptide) | INI1 incorporation into HIV-1 virions (Western blot of concentrated virions) [1] |
| --- | --- | --- |
| B1 | INI1 was not incorporated into HIV-1 virions produced in the presence of SP38 | wild type virus (FIG. 18c lane 2) ... incorporated INI1 |
| B2 |  | but not the W235E and R228A mutant virions incorporated INI1 |
| B3 |  | but not the W235E and R228A mutant virions incorporated INI1 |
